The text below walks through data of PMC3070410.

In the data set the target is T1, RepA hexameric replicative helicase (plasmid RSF1010, UniProt P20356 1-279).
T1 sequence: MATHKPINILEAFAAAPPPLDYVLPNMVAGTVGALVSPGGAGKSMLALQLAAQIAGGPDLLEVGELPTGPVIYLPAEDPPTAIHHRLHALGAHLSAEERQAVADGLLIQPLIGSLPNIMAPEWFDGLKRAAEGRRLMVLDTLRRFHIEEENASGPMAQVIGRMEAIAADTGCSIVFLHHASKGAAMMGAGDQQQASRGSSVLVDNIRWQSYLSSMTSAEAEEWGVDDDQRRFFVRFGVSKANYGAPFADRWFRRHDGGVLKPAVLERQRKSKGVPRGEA
Briefly: stopped-flow fluorescence anisotropy.

B1: dT(pT)19-Fl-3' (21-mer) (ssDNA)
DNA: TTTTTTTTTTTTTTTTTTTT
modifications: 3' amino six-carbon linker residue
Regarding B1, the binding result is reported as “binds”.
